Paper PMC12191924, “A new naphthalene-based fluorogenic substrate for cytochrome P450 4A11” (Biochemical Journal, 2025)

Columns and labels:
CYP1A2 = target: T1, CYP1A2 (Homo sapiens, UniProt P05177); assay type: biochemical
T1 sequence (P05177 1-516): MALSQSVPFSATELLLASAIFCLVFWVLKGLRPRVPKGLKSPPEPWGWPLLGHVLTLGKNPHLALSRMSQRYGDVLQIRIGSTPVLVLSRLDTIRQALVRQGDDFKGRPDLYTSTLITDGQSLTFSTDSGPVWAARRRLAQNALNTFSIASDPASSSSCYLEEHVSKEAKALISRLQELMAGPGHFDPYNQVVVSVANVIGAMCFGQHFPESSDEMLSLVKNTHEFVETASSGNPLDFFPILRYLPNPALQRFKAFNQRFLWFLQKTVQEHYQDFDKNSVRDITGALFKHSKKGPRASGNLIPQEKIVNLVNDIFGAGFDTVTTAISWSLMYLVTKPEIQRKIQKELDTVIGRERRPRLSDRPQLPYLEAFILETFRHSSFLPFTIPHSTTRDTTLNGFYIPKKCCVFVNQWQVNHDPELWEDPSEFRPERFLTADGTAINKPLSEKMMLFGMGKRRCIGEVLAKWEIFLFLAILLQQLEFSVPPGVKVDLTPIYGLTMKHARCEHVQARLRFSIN
From the text: (§1) Thus, we decided to probe the derivatives of methoxynaphthalene as CYP4A11 substrates. The simplest potential methoxynaphthalene-based P450 substrate is 6-methoxy-2-naphthoic acid, a close analog of naproxen, which is known to be metabolized by P450 enzymes. […] This molecule is apparently too small to be a CYP4A11 substrate. Thus, we searched commercially available derivatives of methoxynaphthalene to find a compound with a longer carboxylic acid chain substituent in the naphthalene ring. This search identified MONACRA (Figure 1) as a potential CYP4A11 substrate. […] We attempted to design a fluorimetric assay of its metabolism suitable for high-throughput studies in HLM.

CYP4A11 = target: T2, CYP4A11 (Homo sapiens, UniProt Q02928); assay: Probing 6-methoxy-2-naphthoic acid as a P450 substrate (data not shown); assay type: biochemical
T2 sequence (Q02928 5-519): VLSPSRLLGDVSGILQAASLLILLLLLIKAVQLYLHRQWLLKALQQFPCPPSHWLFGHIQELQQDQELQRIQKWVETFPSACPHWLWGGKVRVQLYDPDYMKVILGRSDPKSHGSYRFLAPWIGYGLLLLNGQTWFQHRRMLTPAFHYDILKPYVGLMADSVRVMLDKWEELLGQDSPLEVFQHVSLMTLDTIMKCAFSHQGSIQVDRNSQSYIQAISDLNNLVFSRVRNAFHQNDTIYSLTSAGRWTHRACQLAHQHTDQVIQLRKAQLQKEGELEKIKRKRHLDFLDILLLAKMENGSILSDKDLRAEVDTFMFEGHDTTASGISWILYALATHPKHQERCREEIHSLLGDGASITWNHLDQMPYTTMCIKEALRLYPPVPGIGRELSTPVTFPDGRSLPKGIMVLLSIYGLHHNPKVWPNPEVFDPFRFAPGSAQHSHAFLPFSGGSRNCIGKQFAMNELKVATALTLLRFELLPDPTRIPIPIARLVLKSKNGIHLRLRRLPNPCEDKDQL
From the text: as §1

[1] = substrate: COc1ccc2cc(C=CC(=O)O)ccc2c1; assay: MONACRA demethylation by recombinant CYP1A2 in Supersomes, high-throughput fluorimetric assay; assay type: biochemical, human; details: other: CYP1A2 Supersomes; substrate inhibition equation; ± = confidence interval P=0.05
Protocol: (§2) Based on these observations, we developed a high-throughput automated assay applicable for studying SSPs of MONACRA metabolism by microsomal P450 enzymes. In this procedure, the incubation mixtures containing an NADPH-generating system and various substrate concentrations are placed in a multiwell plate and preincubated at 30°C in a thermostated shaker. The reaction is started by adding microsomal suspension to the final concentration of 0.3–1 mg/ml of microsomal protein or 0.02–0.1 µM of recombinant P450 enzymes in Supersomes. Following the incubation for 20 min at 30°C, the reaction is quenched by adding trichloroacetic acid (final concentration […]). After supplementing the wells with Na-glycine buffer (pH 10.4, final concentration 2.1 M), the plates are subjected to scanning the fluorescence spectra with excitation at 375 nm. This assay, which is described in detail in Materials and Methods, allows reliable detection of the concentrations of HONACRA as low as 0.1 µM.
(§3) We used the high-throughput activity assay described above to probe MONACRA metabolism by 16 human microsomal P450 enzymes, namely CYP1A2, CYP2A6, CYP2B6, CYP2C8, CYP2C9, CYP2C19, CYP2D6, CYP2E1, CYP2J2, CYP3A4, CYP3A5, CYP4A11, CYP4F2, CYP4F3A, CYP4F3B, and CYP4F12. […]

[2] = substrate: COc1ccc2cc(C=CC(=O)O)ccc2c1; assay: MONACRA demethylation by recombinant CYP2C8 in Supersomes, high-throughput fluorimetric assay; assay type: biochemical, human; details: other: CYP2C8 Supersomes; Michaelis–Menten fit
Protocol: as §2, §3

Q: `COc1ccc2cc(C(=O)O)ccc2c1` [6-methoxy-2-naphthoic acid] was tested. Which “O-demethylation by P450 enzymes” value (CYP1A2) did it give?
A: undergoes O-demethylation catalyzed predominantly by CYP1A2

Q: And the “metabolism by CYP4A11” value (CYP4A11)?
A: not metabolized by CYP4A11

B1: CYP1A2 (Homo sapiens) (protein)
chain: ALSQSVPFSATELLLASAIFCLVFWVLKGLRPRVPKGLKSPPEPWGWPLLGHVLTLGKNPHLALSRMSQRYGDVLQIRIGSTPVLVLSRLDTIRQALVRQGDDFKGRPDLYTSTLITDGQSLTFSTDSGPVWAARRRLAQNALNTFSIASDPASSSSCYLEEHVSKEAKALISRLQELMAGPGHFDPYNQVVVSVANVIGAMCFGQHFPESSDEMLSLVKNTHEFVETASSGNPLDFFPILRYLPNPALQRFKAFNQRFLWFLQKTVQEHYQDFDKNSVRDITGALFKHSKKGPRASGNLIPQEKIVNLVNDIFGAGFDTVTTAISWSLMYLVTKPEIQRKIQKELDTVIGRERRPRLSDRPQLPYLEAFILETFRHSSFLPFTIPHSTTRDTTLNGFYIPKKCCVFVNQWQVNHDPELWEDPSEFRPERFLTADGTAINKPLSEKMMLFGMGKRRCIGEVLAKWEIFLFLAILLQQLEFSVPPGVKVDLTPIYGLTMKHARCEHVQARLRFSIN
notes: purchased Gentest (Supersomes), now a part of Discovery Life Sciences; CYP1A2 is not in the lot list; host or cells: insect cells, recombinant baculovirus
Q: How did the Km [1] turn out when B1 was run?
A: 161 ± 34 µM

Q: And the kcat [1]?
A: 0.733 ± 0.1 s⁻¹

B2: CYP2C8 (Homo sapiens) (protein)
chain: MEPFVVLVLCLSFMLLFSLWRQSCRRRKLPPGPTPLPIIGNMLQIDVKDICKSFTNFSKVYGPVFTVYFGMNPIVVFHGYEAVKEALIDNGEEFSGRGNSPISQRITKGLGIISSNGKRWKEIRRFSLTTLRNFGMGKRSIEDRVQEEAHCLVEELRKTKASPCDPTFILGCAPCNVICSVVFQKRFDYKDQNFLTLMKRFNENFRILNSPWIQVCNNFPLLIDCFPGTHNKVLKNVALTRSYIREKVKEHQASLDVNNPRDFIDCFLIKMEQEKDNQKSEFNIENLVGTVADLFVAGTETTSTTLRYGLLLLLKHPEVTAKVQEEIDHVIGRHRSPCMQDRSHMPYTDAVVHEIQRYSDLVPTGVPHAVTTDTKFRNYLIPKGTTIMALLTSVLHDDKEFPNPNIFDPGHFLDKNGNFKKSDYFMPFSAGKRICAGEGLARMELFLFLTTILQNFNLKSVDDLKNLNTTAVTKGIVSLPPSYQICFIPV
notes: purchased Gentest (Huntsville, AL), now a part of Discovery Life Sciences lot 81760; host or cells: insect cells, recombinant baculovirus
Q: With B2 as the molecule, how does the Km [2] read?
A: 456 ± 188 µM

Q: And the kcat [2]?
A: 0.0267 ± 0.0117 s⁻¹
